From publication PMC4784688 (Developmental cell, 2015)

T1: soluble purified PTPδ ectodomain fused to the Fc region of human immunoglobulin (UniProt Q64487 21-1266)
T1 sequence (looked up): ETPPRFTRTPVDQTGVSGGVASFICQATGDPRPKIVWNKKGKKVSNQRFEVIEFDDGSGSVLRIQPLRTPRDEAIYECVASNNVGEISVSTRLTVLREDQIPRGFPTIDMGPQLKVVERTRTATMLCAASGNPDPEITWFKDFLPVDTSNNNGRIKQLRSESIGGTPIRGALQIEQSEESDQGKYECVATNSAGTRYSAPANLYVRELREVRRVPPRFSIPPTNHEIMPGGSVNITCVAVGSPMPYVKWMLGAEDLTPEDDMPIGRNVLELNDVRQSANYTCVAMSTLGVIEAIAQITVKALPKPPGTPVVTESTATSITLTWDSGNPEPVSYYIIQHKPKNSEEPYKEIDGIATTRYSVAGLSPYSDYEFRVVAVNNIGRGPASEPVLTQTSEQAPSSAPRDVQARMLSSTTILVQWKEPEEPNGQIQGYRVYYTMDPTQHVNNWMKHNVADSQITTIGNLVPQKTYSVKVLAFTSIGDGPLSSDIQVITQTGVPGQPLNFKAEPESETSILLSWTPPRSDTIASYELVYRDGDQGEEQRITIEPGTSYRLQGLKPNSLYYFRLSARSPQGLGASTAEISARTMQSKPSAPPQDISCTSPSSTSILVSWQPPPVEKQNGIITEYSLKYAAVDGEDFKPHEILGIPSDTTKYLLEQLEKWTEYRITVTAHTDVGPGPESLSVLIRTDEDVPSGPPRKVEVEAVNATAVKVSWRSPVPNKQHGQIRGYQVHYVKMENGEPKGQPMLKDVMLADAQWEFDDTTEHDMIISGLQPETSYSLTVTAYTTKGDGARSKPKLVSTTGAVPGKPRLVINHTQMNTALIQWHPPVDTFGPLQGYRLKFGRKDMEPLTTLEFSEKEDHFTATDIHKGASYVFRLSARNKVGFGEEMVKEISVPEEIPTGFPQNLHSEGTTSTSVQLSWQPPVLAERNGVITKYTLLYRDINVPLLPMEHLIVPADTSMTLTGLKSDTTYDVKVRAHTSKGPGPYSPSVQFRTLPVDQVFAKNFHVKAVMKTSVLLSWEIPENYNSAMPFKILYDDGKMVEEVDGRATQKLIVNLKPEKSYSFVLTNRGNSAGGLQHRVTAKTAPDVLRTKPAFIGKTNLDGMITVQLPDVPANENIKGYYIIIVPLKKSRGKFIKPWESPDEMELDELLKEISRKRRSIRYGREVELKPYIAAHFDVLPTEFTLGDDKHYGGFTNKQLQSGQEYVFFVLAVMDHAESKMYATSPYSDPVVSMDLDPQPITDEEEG

T2: Slitrk5 (UniProt O94991)
T2 chain: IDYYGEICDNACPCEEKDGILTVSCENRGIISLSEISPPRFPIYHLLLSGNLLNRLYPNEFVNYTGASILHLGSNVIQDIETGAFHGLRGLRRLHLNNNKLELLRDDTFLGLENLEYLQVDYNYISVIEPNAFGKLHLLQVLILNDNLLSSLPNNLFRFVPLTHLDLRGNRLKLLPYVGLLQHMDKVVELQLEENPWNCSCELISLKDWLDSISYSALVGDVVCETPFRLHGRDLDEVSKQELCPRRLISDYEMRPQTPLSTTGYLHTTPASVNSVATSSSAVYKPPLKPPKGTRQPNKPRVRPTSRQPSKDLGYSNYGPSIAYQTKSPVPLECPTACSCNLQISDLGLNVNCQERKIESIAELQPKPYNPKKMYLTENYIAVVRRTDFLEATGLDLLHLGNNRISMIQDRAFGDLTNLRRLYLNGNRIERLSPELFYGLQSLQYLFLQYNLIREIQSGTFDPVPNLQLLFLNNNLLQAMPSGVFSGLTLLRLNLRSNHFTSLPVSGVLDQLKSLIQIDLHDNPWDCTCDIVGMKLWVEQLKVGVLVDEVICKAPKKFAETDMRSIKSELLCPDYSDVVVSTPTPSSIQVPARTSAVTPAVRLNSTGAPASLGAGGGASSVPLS

B1: HA-tagged Slitrk5 (WT, full-length) (natural protein, UniProt Q810B7 41-957, looked up)
chain: IDYYGEICDNACPCEEKDGILTVSCENRGIISLSEISPPRFPIYHLLLSGNLLSRLYPNEFVNYTGASILHLGSNVIQDIETGAFHGLRGLRRLHLNNNKLELLRDDTFLGLENLEYLQVDYNYISVIEPNAFGKLHMLQVLILNDNLLSGLPNNLFRFVPLTHLDLRGNRLKLLPYVGLLQHMDKVVELQLEENPWNCSCELISLKDWLDSISYSALVGDVVCETPFRLHGRDLDEVSKQELCPRKLISDYEMRPQTPLSTTGYLHTTPASVNSVATSSSAVYKPPLKPPKGTRQPNKPRVRPTSRQPSKDLGYSNYGPSIAYQTKSPVPLECPTACTCNLQISDLGLNVNCQERKIESIAELQPKPYNPKKMYLTENYITVVRRTDFLEATGLDLLHLGNNRISMIQDRAFGDLGNLRRLYLNGNRIERLSPELFYGLQSLQYLFLQYNLIREIQAGTFDPVPNLQLLFLNNNQLQAMPSGVFSGLTLLRLNLRGNSFTSLPVSGVLDQLTSLIQIDLHDNPWDCTCDVVGMKLWIEQLKVGVLVDEVICKAPKKFAETYMRSIKSELLCPDYSDVVVSTPTPSSIQVPSRTNAATPAVRLNSTGTPAGLGAGTGASSVPLSVLILSLLLVFIMSVFVAAGLFVLVMKRRKKNQSDHTSTNNSDVSSFNMQYSVYGGGGGGGGGHPHAHVHHRGPALPKVKTPAGHVYEYIPHPLGHMCKNPIYRSREGNSVEDYKDLHELKVTYSSNHHLQQQPPPPPQQPQQQPPPQMQMQPGEEERRESHHLRSPAYSVSTIEPREDLLSPVQDADRFYRGILEPDKHCSTTPAGSSLPEYPKFPCSPAAYTFSPNYDLRRPHQYLHPGAGESRLREPVLYSPPGAVFVEPNRNEYLELKAKLNVEPDYLEVLEKQTTFSQF
B2: BDNF (protein)
chain: HSDPARRGELSVCDSISEWVTAADKKTAVDMSGGTVTVLEKVPVSKGQLKQYFYETKCNPMGYTKEGCRGIDKRHWNSQCRTTQSYVRALTMDSKKRIGWRFIRIDTSCVCTLTIKRGR

Legend:
[1] = biological target: T1, soluble purified PTPδ ectodomain fused …; experiment: immunostaining of cells or tissue
Slitrk5 = biological target: T2, Slitrk5; experiment: PTPδ-Fc dissociation from cells

Binder | Kd [1] [nM] | Kd (Slitrk5) [nM]
B1 | ~100 | –
B2 | – | ~0.9
